Target: the molecule itself
Assay: native gel or EMSA; total protein extracts of transfected HEK293T cells on an 8% PAA-gel under non-denaturing conditions, Western blot with an anti-NR2E3 antibody

B1: human NR2E3 wild-type protein (pcDNA3.1/HisC-hNR2E3) (natural protein)
chain: not shown
notes: NR2E3 (PNR), photoreceptor-specific nuclear receptor, human, SwissProt Q9Y5X4; band of 45 kDa on the denaturing gel; also called PNR; pcDNA-NR2E3-His/C; source: HEK293T, transiently transfected, in lysate
- stoichiometry N: 2
